Data from the domain aggregation screens of Martell et al. (2025).

Test: soluble fraction after stress (log2 fold change); higher = more stays soluble; pooled small domains, quantitative proteomics
Details: stress: 50 degC
Outline: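 Custom libraries of small protein domains were pooled and measured in a high-throughput format, with quantitative proteomics as the read-out. Each library was stressed at 50°C. The value is the log2 fold change in the amount of each protein that stays soluble after stress, used as a measure of aggregation propensity; higher values mean more of the protein stays soluble.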

Point of comparison: “HMAIDINKIYSEIKKKIPNQDNHIKEILSIIWRDFNNYQNIKSRSILINGEKSSPKKEIFNIIEDNINIPV”, “soluble fraction (log2)” value 0.0154. Against it:
- HMETVSFNPDIAVIPDYRHVVILGETTKTIANKYDIPVDILKAANPGLGNNVTKGDRLRVPDKTKLQ — within 0.2 log units, 0.155
- HMPRENLAYTLIMDGIVQHKNLPRASVTEAWLKQELQKAGINDFRQVLIAGIDSKGQLYFQPKQK — higher, 0.528
- HMQNYLEVLRLHELGMGQRKIAQQVHTSRDTIRKIIAIAENQGLNYSNLIGKTDNELSKVFG — lower, -0.307
- HMEKYTDDLEIAAEIARLETLMEGNGRVLIRPSGTEPLVRVMIEGNDIEQITKLAEDLAALLNKRF — lower, -0.747
- HMDSPVEEWANRGLAYDPSLVTETMAKLYAKQGQIGLARKAFKRLALIYPEKSVYFAFQLKKLSNN — lower, -1.63
- HMQVSEQVQRLLDALENDTLTTKELMDRLGLKHRPTFRKNYLLPSMKLGLVEMTIPDKPNSSRQKYRRRQ — lower, -0.65
- HMHMSLTEKYKELTDLAVSAGVQNLNVREQDGVLYVDGDASGAVKQQLWDTYGKLDPDYTSGDLVLNI — within 0.2 log units, 0.0615
- HMGVDIAEHDGQPAVSIRKGAAESVAQWVKDQGGTFPQEVEMTVQNVARAGGTPLVVARGRDVLGVIYLKD — within 0.2 log units, 0.0501
- HMGLKWVYYTNIEPDGNKINNQKLYDILKQKFVYPVIISRDELDSMELKDLTYDSYIDVEGRYFKPYNLD — lower, -2.23
- HMVSLPSPLAGKVVSLTVQAGQEVKEGDEIMVLEAMKMNTQVHAPSSGRILALRVQPGDQVEEGQTLVTMG — within 0.2 log units, 0.0826
- HMGGVTVQNRETHVNSTVNVRSEQTTESERVALAYQGDAITQIESYENGWSKVEYKGLSGYVMTEYL — within 0.2 log units, -0.181
- HMDIAATTVKQKIRTLLADEDAARPLSDQKIADALAEDGIDVARRTVAKYREELGIEPSWARKR — within 0.2 log units, 0.0398
- HMTKPTLMEVEIKGAIQNPGVYTLKRNSSISKLIKMSGPLLENADTSSISFTHILQDKDVVVIPEIK — lower, -0.262
- HMNREYELTAEESGQRLDKYLAGEMTDLSRSRIKELVQAGEILVNGKKSKVSYKVQKDDLIQVIVLPLE — lower, -0.285
- HMGGYLIGDVAQMVGLSRDALRFYEKKGIIRADKKENGYRYYSEDDIYRLMYILYHRKMNTSLEEIGGLMS — lower, -0.739
- HMELLSVPSRLGTFFLGGEAGHIIRLYLPGDPTPRIAEHETPVLSEARRQLLEYLAGRRTAFSFPL — within 0.2 log units, -0.139
- HMKTMSLSSIEKAIYKTKYENEPTSQRLSRIESSVFGTNFSQDSESERIARISSAINAQKSAK — within 0.2 log units, 0.125
- HMQYDSYTVEEPAKLLDWLLAHLRQSRTKIKATLQGHGIKVNGKTVTQFDYPLEPGMKIRVSLTK — within 0.2 log units, 0.159
- HMSDGDFLQKIAEEILAQFPDKVKEYQKGKKGLIGFFMGELMKRSKGKADPKVATRILEEILSEKNGSS — within 0.2 log units, 0.17
- HMPDLQKAIDDLLQVVDKRLNTSFESILNEVNSEKEAVAFFLALLEAVRWGFVKASQSDEGIKIEK — within 0.2 log units, -0.00989
- HMNQWQLLSEDGAILGTRVLYHPHETEQPFTRSLSGVKIPAHVQSVTIRAGDLVHGFGGREIQMQLPPIV — within 0.2 log units, -0.0987
- HMDVRKSISDLKALGLSDAAVTVYGTIGNKPVHIDKIVSELGIPVFKVLTALTQLEMKGLVTAMQGRMYVL — lower, -1.01
- HMENKIIKNAAHATLKVKKDAGIEITTELIREAVILFHRIYSPNDNPNINWERIINELESHYT — lower, -2.77
- HMKTPETSEYVVQAGDSLRRILTERYGAKEQDLPYLYRQFRLLNPKVSSLDNIHAGTKVRIPLVASVL — within 0.2 log units, 0.132
- HMSNGEWQQGSDGRWWYKFSDGTYPKNKVETIGGKKYGFDSEGWMLANTTKEFSGTTYSFGADGVATS — within 0.2 log units, 0.158
- HMLEYIEPRTAVQIHGIKAKPELNGKRGMVMGYAPERMRYRVRIDVGEGTGGKESEEVYLKPENVIAVK — within 0.2 log units, 0.0778
- HMQNPYDTLGVSRDSTDAEIKKAYRKLAMEHHPDKGGDSQRFAEINNAYDNIKDMSSRQNFENDPSNFQ — higher, 0.288
- HMEFNQAVQDVNELSMQYAKSDVLWPEFEPKVLAFAKNELSQMPPNQWKFALQTFYNGLKQAA — lower, -0.352
- HMQSVPELDQQFKIAIENNDFIKLAQLKEQGYHPSKEVMQSLSNTTPNNTIIAVQKIFGLKA — higher, 0.231
